Experimental data as given in publication PMC5689619.

What was measured:
[1] = target: GST-H-Ras (UniProt P01112)
[2] = target: GST-RAB40C (UniProt Q96S21)

Substance | Kcat/KM ratio (catalytic efficiency) of GAP-stimulated GTP hydrolysis, release of inorganic phosphate [1] | Kcat/KM ratio (catalytic efficiency) of GAP-stimulated GTP hydrolysis, release of inorganic phosphate [2]
GST-GAP R385L (DAB2IP GAP domain, catalytically defective mutant) (domain or fragment) | 102 | 66
GST-GAP (DAB2IP GAP domain) (domain or fragment) | 229 | 114
